Data on 26 sequences can be found in the supplement of paper PMC12764529.

± gives the half width of the 95% confidence interval.

Data set [1] in a line: folding stability dG unfold from trypsin proteolysis; higher = more stable. Summed up: (§1)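 Unfolding free energy was derived, per protease or combined, against a sequence-predicted unfolded-state K50 and a shared folded-state K50, starting from K50 inferred by Bayesian fitting of sequencing counts. Digestion with trypsin and chymotrypsin was carried out on designed mini-proteins under 80 residues without cysteine in a PA-tagged cDNA display construct. Only designs with AlphaFold2 dimer inter-PAE above 15 were kept.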

A short description of data set [2]: folding stability dG unfold from chymotrypsin proteolysis; higher = more stable. The procedure, abridged: as §1
Data set [3] is described as follows: folding stability dG unfold (combined trypsin and chymotrypsin); higher = more stable. The procedure, abridged:
as §1

“SMKSKISEIKSVEKKGNKVVVKVKIKAPKGKAYFIDSNGNIIKEVNLGKEVELEITFDSNNESFKVIVTDSA [r9_917_TrMRF]”: the “folding stability dG unfold” value stood at 1.34 ± 0.065 kcal/mol in data set [1], 1.99 ± 0.032 kcal/mol in data set [2] and 1.84 ± 0.099 kcal/mol in data set [3].
The corresponding values for “SMKVEKLEDGTYIIVNEDGSITEIKVYPDKVEVKTYPVLYKMPDGRWFETKEEAEKFEEETGVPILEEDLSA [r9_660_TrMRF]” are 0.787 ± 0.11 kcal/mol, 0.887 ± 0.27 kcal/mol and 0.759 ± 0.23 kcal/mol.
The corresponding values for “SMKVKIKIEVYKPENKLIVKVYFPEIGKEIVFEFDSLEGLFEKIKKELGLKEENIEIVEVKVKEVDPSELSA [r9_909_TrMRF]” are 2.21 ± 0.16 kcal/mol, 1.93 ± 0.048 kcal/mol and 2.2 ± 0.18 kcal/mol.
The corresponding values for “SMKVKTYTFKIKVDGKEIEVTVEELEDGELLVTIKIKENGKEKTIVVSREELEELLKALLPPGAEIEKVESA [r9_384_TrROS_Hall]” are 2.99 ± 0.13 kcal/mol, 3.49 ± 0.055 kcal/mol and 3.33 ± 0.099 kcal/mol.
On to “SMKVTVSVTYNPETQTLELRFTVYERDPNGNWVPTASFPITLPVTIPAPPVPVVEVPEDATLPEDVALADSA [r9_888_TrMRF]”, for which the results for the “folding stability dG unfold” value in data set [1], in data set [2] and in data set [3] were 3.64 ± 0.18 kcal/mol, 5.14 ± 0.21 kcal/mol and 4.99 ± 0.33 kcal/mol, respectively.
The corresponding values for “SMLIVAEGDTVTVELIATYTVVERDPDDPNRYTLRAFPLPLTFTVDPNDPEALRRFLEAAPPGFTPVIVGSA [r9_476_TrMRF]” are 2.62 ± 0.092 kcal/mol, 3.43 ± 0.039 kcal/mol and 3.17 ± 0.13 kcal/mol.
The corresponding values for “SMLSEMPPEELAERIARELGLVGAEVEAVRVGDVLLVPLRLRDPVRDEVRLLVLLVVPEDDGRVLLTDLSSA [r9_1042_TrMRF]” are 1.46 ± 0.027 kcal/mol, 2.5 ± 0.029 kcal/mol and 2.16 ± 0.091 kcal/mol.
Regarding “SMMKVKVRITFEDGEEVEIEIEMSREELKNKIEELIKELAEKEGKEVKEVKIEIVDEKTNETYTFTIKVKSA [r9_1193_TrROS_Hall]”, the “folding stability dG unfold” value in data set [1] was 4.14 ± 0.19 kcal/mol; in data set [2], 3.92 ± 0.088 kcal/mol; in data set [3], 3.65 ± 0.3 kcal/mol.
The corresponding values for “SMPEKVTFPFNIPLEEYSLEEIKEAVRERLEKEGYKVLKPDLFPEQEKLAKEAPPEAELPLLVEALVVPGSA [r9_1163_TrMRF]” are 0.411 ± 0.078 kcal/mol, -0.19 ± 0.25 kcal/mol and 0.0434 ± 0.28 kcal/mol.
The corresponding values for “SMPEPLVLRVRVRDPENPEPVLEFELVIPPDGGVLVLARHPDRVEVREMPLEEAIDLLLSLPFEIEEVEGSA [r9_470_TrMRF]” are 2.85 ± 0.068 kcal/mol, 3.32 ± 0.085 kcal/mol and 3.14 ± 0.14 kcal/mol.
The corresponding values for “SMPEVETVTLTLTLVDEETGEEVTIEITATRVDGYLVLTMKVEVTVNGKKYTIEMTIVVKPGEEITLTLESA [r9_1015_TrROS_Hall]” are 3.99 ± 0.33 kcal/mol, 5.85 ± 0.37 kcal/mol and over 6 kcal/mol.
Consider “SMPKTIELEIDEDLPEEEVRARLLAQGFEEIEFHELEDPEVRRVTATRPEDDETVVVTVRPPPVPPDAPGSA [r9_1090_JUSTAS]”, for which the “folding stability dG unfold” value in data set [1] came to 2.38 ± 0.096 kcal/mol; in data set [2], 2.29 ± 0.079 kcal/mol; in data set [3], 2.28 ± 0.18 kcal/mol.
With “SMPLKVTVEVYEPGGNPLGSKTYEVEPGETLTFTFPRPVKGRVTITDPNADNPQTVTGDPATGTLTFPLVSA [r9_272_JUSTAS]”, the “folding stability dG unfold” value worked out at 0.587 ± 0.056 kcal/mol in data set [1], 0.909 ± 0.086 kcal/mol in data set [2] and 0.858 ± 0.069 kcal/mol in data set [3].
As for “SMPLSEEEARALAEALAAEVAAAAAAAGVAGVEVPVEISRTEEGGWTITLTVTLHAGAAPVGVRPVVVEVAS [r1_364_JUSTAS]”, the “folding stability dG unfold” value in data set [1] amounted to 1.19 ± 0.027 kcal/mol; in data set [2], 1.81 ± 0.026 kcal/mol; in data set [3] it was 1.59 ± 0.081 kcal/mol.
The corresponding values for “SMPMTVEEFLEANPDVILIRLPNEKVIFINPEEEKAFVLLPETGEVLVIDATLEEVLELVPEFGAEILDESA [r9_721_TrMRF]” are 2 ± 0.087 kcal/mol, 2.558 ± 0.025 kcal/mol and 2.34 ± 0.052 kcal/mol.
The corresponding values for “SMPNTIEEIRFTFTLPDDTPVESEVDPDGKVTGTYPDGLKIEATLEPDSGKLTVKVTFPDGLPAEATIDLSA [r9_99_TrMRF]” are 1.6 ± 0.09 kcal/mol, 1.78 ± 0.042 kcal/mol and 1.7 ± 0.089 kcal/mol.
The matching figures for “SMREITVTLPSEELAEELREAAEALGVEEVEVSRLPEDRLEIRIKTNSDPESVIQALKDLAEKRGLEVAASA [r9_1003_JUSTAS]”: 1.73 ± 0.074 kcal/mol, 1.66 ± 0.086 kcal/mol and 1.61 ± 0.085 kcal/mol.
Take “SMRIVTEDGQELTIVLPKVPPNMTPEQLRKALEEAGVEVEEITFDEETGEVTVKIRFKDAEKAEEALKKASA [r9_1154_TrROS_Hall]”: the “folding stability dG unfold” value in data set [1] was 1.51 ± 0.059 kcal/mol; in data set [2], 0.957 ± 0.12 kcal/mol; in data set [3], 1.21 ± 0.14 kcal/mol.
The matching figures for “SMRVRPDGYAVVIEVRVTEDAGPPPPPFEAIRDPETDRVTVVAGATPEEIVAFAEFPGVEVERIEVIPLLSA [r9_827_TrMRF]”: 0.24 ± 0.1 kcal/mol, 0.675 ± 0.086 kcal/mol and 0.572 ± 0.099 kcal/mol.
The corresponding values for “SMSLTIPEELIEAIKKALEELEPGEEVTITYNLPDGSVITVKVVGKGEVTITVYSSPDSQTQTYTFEIKESA [r9_132_JUSTAS]” are 3.15 ± 0.061 kcal/mol, 3.313 ± 0.023 kcal/mol and 3.25 ± 0.069 kcal/mol.
The corresponding values for “SMSPEIVEKIRKFLEEKGYSFTVERIPETGKVIINIDVRGNGKTRRVNIVFDENDPEKGIDLIKEIIESGSA [r9_42_TrMRF]” are 3.51 ± 0.1 kcal/mol, 4.5 ± 0.076 kcal/mol and 4.22 ± 0.085 kcal/mol.
In the case of “SMTEELVIDFPDGVKATVRRFGDGEVTITIDWPTDNPELRKKGGIKALVDAIAKELGLDPSKVKVYTRNASA [r9_401_TrMRF]”, the “folding stability dG unfold” value in data set [1] was found to be 3.05 ± 0.086 kcal/mol; in data set [2], 4.12 ± 0.087 kcal/mol; in data set [3] it was 3.75 ± 0.11 kcal/mol.
The corresponding values for “SMTKTIPVTIEVDPSLSEEEIEALVEKVKEEIKEKAEAEGGKVKVTVTIEPDPNKPVVHGTITITKPKKLSA [r9_1161_JUSTAS]” are 0.699 ± 0.049 kcal/mol, -0.499 ± 0.18 kcal/mol and 0.165 ± 0.13 kcal/mol.
The corresponding values for “SMTLIVRVEVENENGEKIEKEVEVEVEPGETIEELLKKLNLSEEEVKKVKIEVYVIKDGKLEKKEFTLEKSA [r9_755_TrROS_Hall]” are 1.29 ± 0.2 kcal/mol, 2.61 ± 0.077 kcal/mol and 2.29 ± 0.35 kcal/mol.
The matching figures for “SMTLPLLFVFPVNSPEELEKARKLAEEEVKELAEELGVKVKIEKVEYFVNPEGDYVLIRAYVTVTSPEEESA [r9_105_TrMRF]”: 3.18 ± 0.054 kcal/mol, 4.07 ± 0.1 kcal/mol and 3.76 ± 0.086 kcal/mol.
For the sequence “SMTLTIEVDPNDPAKVKALIDSTPPDTTVTLVFPQEDGSKPVKTITVKPPLEKPISPENMTPKNVAARKKSA [r9_1103_JUSTAS]”, the “folding stability dG unfold” value in data set [1] is -0.782 ± 0.69 kcal/mol; in data set [2], 0.481 ± 0.099 kcal/mol; in data set [3], 0.118 ± 0.18 kcal/mol.
